Results from paper PMC4477659.

Key:
Test in all cases: filter binding
Conditions in all cases: Filter binding: 10 mM HEPES, 3 mM MgCl2, 1 mM DTT, 5% glycerol, 100 mM KCl, 0.05 mg/ml tRNA, 5 uM BSA, 30 C 15 min; UV crosslinking: 10 mM HEPES pH 7.9, 3 mM …
[1] = test system: T1, PTBP3 AUG4 isoform del1-31 (human), O95758-5
T1 sequence: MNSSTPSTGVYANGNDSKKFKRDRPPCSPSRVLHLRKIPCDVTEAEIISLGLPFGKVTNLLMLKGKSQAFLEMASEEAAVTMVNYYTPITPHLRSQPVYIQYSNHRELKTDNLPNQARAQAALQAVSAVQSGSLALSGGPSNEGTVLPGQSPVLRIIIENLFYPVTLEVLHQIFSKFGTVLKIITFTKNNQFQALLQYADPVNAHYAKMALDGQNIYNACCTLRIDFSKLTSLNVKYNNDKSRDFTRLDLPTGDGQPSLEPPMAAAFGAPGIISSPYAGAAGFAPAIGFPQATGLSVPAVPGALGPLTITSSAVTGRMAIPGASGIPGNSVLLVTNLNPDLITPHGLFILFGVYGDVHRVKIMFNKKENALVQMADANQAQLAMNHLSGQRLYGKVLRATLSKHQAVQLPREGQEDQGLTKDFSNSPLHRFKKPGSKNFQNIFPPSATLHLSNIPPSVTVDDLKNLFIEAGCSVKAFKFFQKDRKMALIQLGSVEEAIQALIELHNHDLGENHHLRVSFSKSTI

[2] = test system: PTBP3 AUG11 isoform del1-103 (human), O95758-5
[3] = test system: PTBP3 ΔRRM1 (human), O95758-5

Substance | Kd [1] [nM] | Kd [2] [nM] | Kd [3] [nM]
CUCUCUCUCUCUCUCUCUCUCUCU [[CUCUCU]4] | 34.8 | 43.7 | 75.8
EMCV IRES | 6.4 | 4.3 | 6.5
MTDH exon 7 RNA | 91.5 | 63.2 | 91.1
PV IRES | 44.1 | 23.4 | 23.6
